Assay results: patent US20220119492A1 (MEDIKINE, published 2022)

T1: human IL-2Rβ (CD122 protein, Fc Tag) (27-239) (human, UniProt P14784 27-239)
T1 construct: range 27-239; Bought protein; also called hu-IL-2Rβ subunit; IL-2Rβ subunit; not shown: Fc tag of the bought protein
T1 sequence (looked up): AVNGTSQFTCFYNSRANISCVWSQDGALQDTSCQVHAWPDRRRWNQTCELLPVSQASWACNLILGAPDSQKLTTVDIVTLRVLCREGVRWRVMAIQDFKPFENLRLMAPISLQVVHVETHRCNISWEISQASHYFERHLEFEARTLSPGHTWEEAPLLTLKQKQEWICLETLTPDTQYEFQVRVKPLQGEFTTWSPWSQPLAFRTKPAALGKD

T2: human IL-2Rγc (CD132 protein, Fc Tag) (23-254) (human, UniProt P31785 23-254)
T2 construct: range 23-254; Bought protein; also called hu-IL-2Rγc subunit; IL-2Rγc subunit; not shown: Fc tag of the bought protein
T2 sequence (looked up): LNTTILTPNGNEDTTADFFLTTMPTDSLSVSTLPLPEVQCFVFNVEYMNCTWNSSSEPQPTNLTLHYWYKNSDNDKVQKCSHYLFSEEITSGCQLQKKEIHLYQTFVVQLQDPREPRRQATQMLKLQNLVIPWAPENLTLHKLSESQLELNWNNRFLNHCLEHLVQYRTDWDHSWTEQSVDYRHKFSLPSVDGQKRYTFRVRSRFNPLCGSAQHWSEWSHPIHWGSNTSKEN


What was measured:
Test in all cases: competition ELISA, peptide tracer
[1] = target: T1, human IL-2Rβ (CD122 protein, Fc Tag) …
Experimental: (§1) Binding of Fc fusions to IL-2Rβ and IL-2Rγc were measured using a competition binding ELISA with biotinylated peptide/NeutrAvidin-HRP tracer. ELISA plate was prepared as described in Example 27.
(§2) The plate was washed 4 times with PT (1×PBS, 0.05% Tween® 20) buffer. Fifty (50) μL of IL-2R ligands serially diluted in PBT was added to appropriate wells then incubated at 4° C. for 1 hr.
(§3) At the appropriate time, the precomplexed bn-peptide/NA-HRP tracer was diluted to 2-fold its predetermined binding EC80 (typically 30 to 10 nM) without washing. fifty (50) μL of bn-peptide/NA-HRP tracer was added to each well and incubated at 4° C. for 45 mins.

[2] = target: T3, cynomolgus monkey IL-2Rβ subunit (cynomolgus monkey)
T3 construct: Bought protein; also called cyno-IL-2Rβ subunit
T3 sequence (Q38J85 whole entry): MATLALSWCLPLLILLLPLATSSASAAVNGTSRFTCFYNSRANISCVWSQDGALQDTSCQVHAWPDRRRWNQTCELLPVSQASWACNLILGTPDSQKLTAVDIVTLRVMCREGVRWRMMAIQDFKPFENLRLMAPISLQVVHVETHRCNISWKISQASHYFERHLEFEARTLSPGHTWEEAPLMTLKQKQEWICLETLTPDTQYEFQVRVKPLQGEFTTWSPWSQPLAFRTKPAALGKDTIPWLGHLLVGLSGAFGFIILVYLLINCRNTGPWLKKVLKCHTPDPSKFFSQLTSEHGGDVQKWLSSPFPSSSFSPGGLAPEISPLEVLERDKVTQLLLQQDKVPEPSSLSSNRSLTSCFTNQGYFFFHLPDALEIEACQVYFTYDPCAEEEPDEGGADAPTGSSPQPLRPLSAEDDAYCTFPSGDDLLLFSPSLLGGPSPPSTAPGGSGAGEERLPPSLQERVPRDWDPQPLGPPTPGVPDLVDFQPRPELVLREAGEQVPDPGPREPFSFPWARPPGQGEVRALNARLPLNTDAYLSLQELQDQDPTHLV
Experimental: as §1, §2, §3

[3] = target: T4, cynomolgus monkey Rγc subunit (cynomolgus monkey)
T4 construct: also called cyno-IL-2Rγc subunit
Experimental: as §1, §2, §3

[4] = target: T2, human IL-2Rγc (CD132 protein, Fc Tag) …
Experimental: as §1, §2, §3

Binder | IC50 [1] | IC50 [2] | IC50 [3] | IC50 [4]
SEQ ID NO 4176 (peptide) peptide: GGRYVHDCFIAQVGDLCDLFLHPAPAPAPAPAPAPAPAGVVCQDWEGVELCWQGG | < 100 µM | < 100 µM | < 100 µM | < 100 µM
GGAYVHDCFIGQVGDLCDLFLHGG [SEQ ID NO 3202] | < 100 µM | < 100 µM |  | 
GGRYVHDCFIGAVGDLCDLFLHGG [SEQ ID NO 3200] | < 100 µM | < 100 µM |  | 
GGAYVHDCFIAQVGDLCDLFLHGG [SEQ ID NO 3177] | < 100 µM | < 100 µM |  | 
GGRYAHDCFIAQVGDLCDLFLHGG [SEQ ID NO 3179] | < 100 µM | < 100 µM |  | 
GGRYVHDCFIAQVGDLCDLFLAGG [SEQ ID NO 3182] | < 100 µM | < 100 µM |  | 
GGRYVADCFIAQVGDLCDLFLHGG [SEQ ID NO 3180] | < 100 µM | < 100 µM |  | 
GGRYVHDCFIAQVGDLCDAFLHGG [SEQ ID NO 3185] | < 100 µM | < 100 µM |  | 
GGRYVHDCFIAQVGDLCALFLHGG [SEQ ID NO 3186] | < 100 µM | < 100 µM |  | 
GGRYVHDCFIAQVGDACDLFLHGG [SEQ ID NO 3176] | < 100 µM | < 100 µM |  | 
GGRYVHDCFIGQVGDLCALFLHGG [SEQ ID NO 3204] | < 100 µM | < 100 µM |  | 
GGRAVHDCFIAQVGDLCDLFLHGG [SEQ ID NO 3178] | < 100 µM | < 100 µM |  | 
GGRYVHDCFIAQVADLCDLFLHGG [SEQ ID NO 3174] | < 100 µM | < 100 µM |  | 
GGRYVHDCFIAQVGDLCDLFAHGG [SEQ ID NO 3183] | < 100 µM | < 100 µM |  | 

The next lines start with the values.

IC50 [1] | IC50 [2] | IC50 [3] | IC50 [4] | Binder
< 100 µM | < 100 µM | < 100 µM | < 100 µM | SEQ ID NO 4175 (peptide) peptide: GGRYVHDCFIAQVGDLCDLFLHGGGGSGGGGSGGGGSGGGGSGGVVCQDWEGVELCWQGG
< 100 µM | < 100 µM | < 100 µM | < 100 µM | SEQ ID NO 4173 (peptide) peptide: GGGELLVDCFKVKVGELCDLFFGGGGGSGGGGSGGVVCQDWEGVELCWQGG
< 100 µM | < 100 µM | < 100 µM | < 100 µM | SEQ ID NO 4174 (peptide) peptide: GGGELLVDCFKVKVGELCDLFFGGGGGSGGGGSGGGGSGGVVCQDWEGVELCWQGG
< 100 µM | < 100 µM | < 100 µM | < 100 µM | WYPCWIARVGELCDLEEGPVNRGGGGGSGGVVCQDWEGVELCWQGG [SEQ ID NO 4172]
< 100 µM | < 100 µM | < 100 µM | < 100 µM | SEQ ID NO 4182 (peptide) peptide: GGRYVHDCFIAQVGDLCALFLHPAPAPAPAPAPAPAPAGVVCQDWEGVELCWQGG
< 100 µM | < 100 µM |  |  | GGRYVHDCFIAQAGDLCDLFLHGG [SEQ ID NO 3173]
